Results on eight molecules are retold here after US20060275317A1, “Vaccine compositions for prevention of chronic and infectious diseases” (Biokit S.A., priority 2003, published 2006).

Data set [1] concerns the target T1, chicken lysozyme (Gallus gallus, UniProt P00698). Briefly: Far Western blot lysozyme-protein interaction assay. In kind it is binding. The following applies: 1, 5, 10 μg immobilized lysozyme; washes with 0.05% Tween 20. How it is done:
(§1) In order to test this hypothesis, a Far-Western blot lysozyme-protein interaction assay was performed. The assay is summarized in FIG. 5 and comprises generally the following three steps: (1) immobilization of purified lysozyme onto a membrane; (2) probing of the membrane with a ligand likely to bind directly to the lysozyme; and (3) immunodetection of the bound lysozyme-ligand. A detailed experimental procedure is presented below.
(§2) Purified chicken egg white lysozyme and human breast milk lysozyme were purchased from Sigma-Aldrich (Madrid, Spain). Two series of aliquot fractions containing 1 μg, 5 μg, and 10 μg of purified lysozyme and a protein molecular weight marker (SeeBlue Plus II™, Invitrogen SA, Barcelona, Spain) were separated electrophoretically through a 4-12% SDS-PAGE gel using the conditions recommended by the supplier (Invitrogen). The gel was then processed for Western blotting as described in Sambrook et al. (1989) according to art known methods, and the proteins were electro-transferred to an Immobilon™ P PVDF membrane (Millipore Corp., Bedford, Mass.). The presence of lysozyme immobilized onto the PVDF membrane was assessed by staining for 1 minute with Ponceau S stain (Sigma-Aldrich, Madrid, Spain), and then destained by vigorous washing for 5 minutes with desionized water. The membrane was divided in two, each portion containing a protein ladder and three quantities of chicken or human lysozyme (1 μg, 5 μg and 10 μg per lane). Each membrane was then incubated for 16 hours at 4° C. in 5 ml of TBST (10 mM Tris-HCl, pH 8.0, 150 mM NaCl, 0.05% weight/vol. Tween 20™,) supplemented with 5% (weight/vol.) of non-fat skimmed dried SVELTESSE™milk (NESTLÉ, ESPAÑA, Barcelona, Spain) (to make TBST-milk). […]

Data set [2] relates to human lysozyme. The data set is described as above. It is filed as binding. The following applies: 1, 5, 10 μg immobilized lysozyme; washes with 0.05% Tween 20. The method, then: as §1, §2
Data set [3] addresses T1, chicken lysozyme. As to the kind of experiment: Lysozyme inhibition assay (EnzCheck, fluorescein-labeled Micrococcus lysodeikticus). It is filed as biochemical. How it is done:
(§3) To test this hypothesis, the antibacterial activity of both human and chicken lysozyme, in the presence or absence of GST-Tp17, was assayed using an EnzCheck® lysozyme assay kit (Molecular Probes, Eugene, Oreg.). The assay comprises the use of Fluorescein-labeled Micrococcus lysodeikticus bacterial cells as a fluorescent substrate of lysozyme. In this Gram positive bacterium, the peptidoglycan layer is directly accessible to lysozyme, and has been Fluorescein-labeled such that fluorescence is naturally quenched. Upon lysozyme hydrolysis, quenching is relieved and fluorescein is released in a quantity that is proportional to lysozyme activity. The following experimental protocol was used.
(§4) A typical 100 μl reaction consisted of 25 μl of lysozyme solution (10 units for chicken lysozyme or 50 units for human lysozyme, dissolved in deionized water), 25 μl of the test protein solution and 50 μl of a suspension of fluorescein-labeled Micrococcus lysodeikticus (50 μg/ml). The reaction was incubated for 45 minutes at 37° C. and the fluorescence was measured (λexc.=485 nm; λemi.=520 nm) using a fluorescence multi-well plate reader model FLx800 (Bio TEK instruments, Winoosky, Vt.) equipped with KC junior data acquisition software (Bio TEK Instruments, Winoosky, Vt.). Each experimental point was expressed as the mean and standard deviation corresponding to the reading of three independent wells. Wells containing 50 μl of deoinized water and […] of Fluorescein-labeled Micrococcus lysodeikticus suspension were used as a blank. Two fold serial dilutions of test protein were used to vary the concentration of the test protein from 83.5 to 1.3 μg/well.

Data set [4] deals with human lysozyme. Described as above. It is filed as biochemical. The method, then: as §3, §4
In data set [5] the target is T2, LISOZIMA CHIESI (chicken lysozyme) (Gallus gallus, UniProt P00698).
T2 construct: natural hen egg-derived chicken lysozyme used in commercially available medicinal preparations; purchased CHIESI ESPAÑA SA, Barcelona, Spain
T2 sequence (P00698 19-147): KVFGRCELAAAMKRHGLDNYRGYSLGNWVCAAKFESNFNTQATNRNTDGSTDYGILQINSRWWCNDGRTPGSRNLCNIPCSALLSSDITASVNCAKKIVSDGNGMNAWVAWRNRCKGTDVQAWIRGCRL
As to the kind of experiment: Inhibition of commercial chicken lysozyme preparation (EnzCheck). In kind it is biochemical. The following applies: lysozyme 4 μg/ml; molar ratio 1:5 to 1:50 GST-Tp17. The method, then:
(§5) Chicken Lysozyme is a potent antimicrobial enzyme active against both bacteria and viruses. Commercial preparations that contain Lysozyme as an active agent include, but are not limited to, LIZIPAINA® (Boehringer Ingelheim, San Cugat del Vallés, Spain) and LISOZIMA CHIESI (CHIESI ESPAÑA SA, Barcelona, Spain). […] To test this hypothesis, one tablet of each drug, LIZIPAINA® (containing 5 mg chicken lysozyme per tablet) and LISOZIMA CHIESI (containing 250 mg chicken lysozyme per tablet), was resuspended in deionized water (The Millipore Corporation, Bedford, Mass., USA) to adjust the Lysozyme concentration to 4 μg/ml. These samples were then incubated in absence or in presence of increasing amount of either GST-Tp17 or Tp17-HIS. In this experiment the molar ratio between chicken lysozyme and its cognate inhibitor was varied from 1:5 to 1:50 for GST-Tp17 and from 1:16 to 1:160 for Tp17-HIS. After an incubation period of 5 minutes at 20° C. the samples were assayed for lysozyme enzymatic activity using the EnzCheck® Lysozyme assay kit (E-22013; Molecular Probes Inc., Eugene, Oreg., USA) as recommended by the supplier guidelines.

The target in data set [6] is T3, LIZIPAINA (chicken lysozyme) (Gallus gallus, UniProt P00698).
T3 construct: natural hen egg-derived chicken lysozyme used in commercially available medicinal preparations; purchased Boehringer Ingelheim, San Cugat del Vallés, Spain
T3 sequence (P00698 19-147): as above
Described as above. In kind it is biochemical. The following applies: lysozyme 4 μg/ml; molar ratio 1:5 to 1:50 GST-Tp17, 1:16 to 1:160 Tp17-HIS. The method, then:
as §5

For data set [7], the system named is Micrococcus lysodeikticus. The following applies: pH 6.24, 25° C, Micrococcus lysodeikticus substrate; cited from earlier work.
Data set [8] deals with human lysozyme. Briefly: POD-labeled human lysozyme binding to immobilized β-APP forms (spot blot). The following applies: 10 μg spotted; POD-HuLYS diluted 1/1000. The method, then: To test whether the β-APP protein binds huLYS, we performed lysozyme binding assays using purified, recombinant forms of β-APP. Both sAPPα (product number: S9564) and sAPPα (302-612) (product number: S8065) were purchased from Sigma-Aldrich (Tres cantos, Madrid, Spain). 10 μg of each protein was spotted onto a Nytran membrane (Scleicher & Schüell, Dassel, Germany). Non-specific adsorption sites were blocked by incubation for one hour in TBST-milk. After three washes with TBST, the membrane was incubated for one hour with horse radish peroxidase (POD)-labeled human lysozyme diluted 1/1000 in TBST-milk. Next, the membrane was washed three times, for 5 minutes each wash, with TBST. Staining was performed by adding 5 ml of POD chromogenic substrate (TMB, product number: T0565, Sigma). […] Moreover, the β-APP/huLYS protein complex likely serves as a diagnostic marker of Alzheimer's disease.

The conditions of data set [9]: mature protein; cited from earlier work.
The subject of data set [10] is Micrococcus lysodeikticus. Briefly: Antibacterial activity of lysozymes in presence or absence of Tp17 (EnzCheck Lysozyme assay). In kind it is biochemical. The following applies: 1 unit human lysozyme or 230 units rLysozyme; 10 μg GST-Tp17 or Tp17-HIS. The method, then:
as §3
In that context, we compared the antibacterial activity of human lysozyme (Ventria Bioscience, Sacramento, Calif., USA) and rLysozyme™ using the EnzCheck Lysozyme assay (E-22013; Molecular Probes, Eugene, Oreg.). We first determined that under the manufacturer's prescribed assay conditions, 1 unit of human lysozyme produced the same intensity of fluorescence as 230 units of rLysozyme™. Next, we measured the fluorescence intensity of either 1 unit of human lysozyme or 230 units of rLysozyme™, in the presence or absence of 10 μg of either GST-Tp17 or Tp17-HIS. […]

[11] abbreviates: 83.5 to 1.3 μg/well test protein.

“Also recorded” adds a separate entry of the source.

T1 sequence (P00698 19-147): as above

On to “GST-Tp17: recombinant fusion protein of GST and Treponema pallidum 17 kDa antigen Tp17 (SEQ ID NO:29)”, for which the “binding to chicken lysozyme” value in data set [1] is “detected binding”. The “binding to human lysozyme” value in data set [2] is “detected binding”. For the same molecule, the “inhibition of acetyl muramidase activity of chicken lysozyme” value in data set [3] (as little as 1.3 μg/well test protein, 10 units lysozyme, 45 min 37° C) is given as above 85%. In addition, the “inhibition of acetyl muramidase activity of human lysozyme” value in [4] (as little as 1.3 μg/well test protein, 50 units lysozyme, 45 min 37° C) is listed as above 85%. Besides, in data set [5], the “inhibition of enzymatic antibacterial activity of LISOZIMA CHIESI” value is recorded as “strongly inhibited”. Also, the “inhibition of enzymatic antibacterial activity of LIZIPAINA” value in data set [6] is “strongly inhibited”.
As to “recombinant human lysozyme: purified recombinant human lysozyme from transgenic rice (159-53LZ-90P; Ventria Bioscience)”, the specific activity in data set [7] is reported as 187,000 units/mg protein.
With “natural human breast milk lysozyme: purified natural human breast milk lysozyme (L-6394; Sigma-Aldrich)”, in data set [7], the specific activity is on record as 101,000 units/mg protein.
As to “sAPPα: longer recombinant fragment of β-APP derived from the APP695 isoform (Sigma S9564)”, in data set [8], the “binding of POD-labeled huLYS to immobilized protein” value was “binding; also recorded: bound”.

B1: E. coli Ivy: Escherichia coli inhibitor of vertebrate lysozyme (P45502) (protein)
chain: QDDLTISSLAKGETTKAAFNQMVQGHKLPAWVMKGGTYTPAQTVTLGDETYQVMSACKPHDCGSQRIAVMWSEKSNQMTGLFSTIDEKTSQEKLTWLNVNDALSIDGKTVLFAALTGSLENHPDGFNFK
For B1, in [9], the pI is 5.51.

B2: Tp17-HIS: recombinant mature Tp17 (residues 23 to 156) with histidine tail, expressed in E. coli EcBK633 (protein)
chain: VSCTTVCPHAGKAKAEKVECALKGGIFRGTLPAADCPGIDTTVTFNADGTAQKVELALEKKSAPSPLTYRGTWMVREDGIVELSLVSSEQSKAPHEKELYELIDSNSVRYMGAPGAGKPSKEMAPFYVLKKTKK
modifications: left off: small tags and cut ends
notes: recombinant mature Tp17 (residues 23 to 156) with histidine tail, expressed in E. coli EcBK633
For B2, the “inhibition of enzymatic antibacterial activity of LIZIPAINA” value in data set [6] is “strongly inhibited”.

B3: human lysozyme: human lysozyme (NP_000230); breast milk (Sigma) or recombinant (Ventria) depending on the example (protein)
chain: KVFERCELARTLKRLGMDGYRGISLANWMCLAKWESGYNTRATNYNAGDRSTDYGIFQINSRYWCNDGKTPGAVNACHLSCSALLQDNIADAVACAKRVVRDPQGIRAWVAWRNRCQNRDVRQYVQGCGV
Regarding B3, in data set [10], the “susceptibility of antibacterial activity to inhibition by GST-Tp17 or Tp17-HIS” value is given as “strongly inhibited”.

B4: GST-Tp47: control fusion protein of GST and T. pallidum Tp47 antigen (protein)
chain: CGSSHHETHYGYATLSYADYWAGELGQSRDVLLAGNAEADRAGDLDAGMFDAVSRATHGHGAFRQQFQYAVEVLGEKVLSKQETEDSRGRKKWEYETDPSVTKMVRASASFQDLGEDGEIKFEAVEGAVALADRASSFMVDSEEYKITNVKVHGMKFVPVAVPHELKGIAKEKFHFVEDSRVTENTNGLKTMLTEDSFSARKVSSMESPHDLVVDTVGTGYHSRFGSDAEASVMLKRADGSELSHREFIDYVMNFNTVRYDYYGDDASYTNLMASYGTKHSADSWWKTGRVPRISCGINYGFDRFKGSGPGYYRLTLIANGYRDVVADVRFLPKYEGNIDIGLKGKVLTIGGADAETLMDAAVDVFADGQPKLVSDQAVSLGQNVLSADFTPGTEYTVEVRFKEFGSVRAKVVAQ
modifications: left off: a dimerising Fc or GST
notes: control fusion protein of GST and T. pallidum Tp47 antigen
As to B4, in [1], the “binding to chicken lysozyme” value was “No signal was detected”. Besides, the “binding to human lysozyme” value in data set [2] is “No signal was detected”. Also, the “inhibitory effect on chicken lysozyme acetyl muramidase activity” value in [3] (setting [11]) is given as “did not exert any inhibitory effect”. Also, the “inhibitory effect on human lysozyme acetyl muramidase activity” value in [4] (setting [11]) is “did not exert any inhibitory effect”.
